Results on 2 substances are retold here after PMC5576371.

The target in this test is Calmodulin (His-CaM) (UniProt P0DP23). The test is described as follows: BLI; ForteBio Octet Red; increasing concentrations of ASPM IQ motif (GST-IQ) to CaM; 1:1 binding model; Kd calculated as Koff/Kon.

In the case of “GST-IQ fusion protein, ASPM 23rd IQ motif and its adjacent 16 amino acid motif, Physeter macrocephalus (domain or fragment)”, the fold increase of Kd against T. truncatus was 2.2 fold.

For “GST-IQ fusion protein, ASPM 23rd IQ motif and its adjacent 16 amino acid motif, Tursiops truncatus (domain or fragment)”, the Kd is 17.7 nM.
